Measured values as given in US20180120302A1.

Legend:
T4L-L99A-A130S [1] = biological target: T4L-L99A-A130S (UniProt P00720); assay: BSI, global analysis of kinetic traces
T4L-D70N [2] = biological target: T4L-D70N (UniProt P00720); assay: BSI corrected steady-state data, 25° C., pH 8.0
T4L-L99A [3] = biological target: T4L-L99A (UniProt P00720); assay: ITC, KD2 (low affinity mode), T = 37° C. and pH = 7.2
T4L-L99A [4] = biological target: T4L-L99A (UniProt P00720); assay: ITC, KD1 (high affinity mode), T = 37° C. and pH = 7.2
T4L-D70N [5] = biological target: T4L-D70N (UniProt P00720); assay: BSI, global analysis, KD2 (low affinity mode), 25° C., pH 8.0
T4L-L99A-A130S [6] = biological target: T4L-L99A-A130S (UniProt P00720); assay: as above
T4L-D70N [7] = biological target: T4L-D70N (UniProt P00720); assay: BSI, global analysis, kf2 (low affinity mode), 25° C., pH 8.0
T4L-L99A-A130S [8] = biological target: T4L-L99A-A130S (UniProt P00720); assay: as above
T4L-L99A [9] = biological target: T4L-L99A (UniProt P00720); assay: Fluorescence, KD2 (low affinity mode), T = 37° C. and pH = 7.2
T4L-D70N [10] = biological target: T4L-D70N (UniProt P00720); assay: BSI, global analysis, KD1 (high affinity mode), 25° C., pH 8.0
T4L-L99A-A130S [11] = biological target: T4L-L99A-A130S (UniProt P00720); assay: as above
T4L-D70N [12] = biological target: T4L-D70N (UniProt P00720); assay: BSI, global analysis, kf1 (high affinity mode), 25° C., pH 8.0
T4L-L99A-A130S [13] = biological target: T4L-L99A-A130S (UniProt P00720); assay: as above
T4L-D70N [14] = biological target: T4L-D70N (UniProt P00720); assay: BSI, global analysis, kr1 (high affinity mode), 25° C., pH 8.0
T4L-L99A-A130S [15] = biological target: T4L-L99A-A130S (UniProt P00720); assay: as above
T4L-L99A [16] = biological target: T4L-L99A (UniProt P00720); assay: Fluorescence, KD1 (high affinity mode), T = 37° C. and pH = 7.2
T4L-L99A [17] = biological target: T4L-L99A (UniProt P00720); assay: BSI steady-state, KD2 (low affinity mode), T = 37° C. and pH = 7.2
T4L-L99A [18] = biological target: T4L-L99A (UniProt P00720); assay: BSI steady-state, KD1 (high affinity mode), T = 37° C. and pH = 7.2
T4L-D70N [19] = biological target: T4L-D70N (UniProt P00720); assay: BSI, global analysis, row printed kr1 but read as kr2 (low affinity mode), 25° C., pH 8.0
T4L-L99A-A130S [20] = biological target: T4L-L99A-A130S (UniProt P00720); assay: as above

Chain of αB-D3 (αB-crystallin with serine residues 19, 45 and 59 mutated to aspartic acids) (P02511 other isoform, or with tags, fused parts or gaps limits assumed, stated change not applied): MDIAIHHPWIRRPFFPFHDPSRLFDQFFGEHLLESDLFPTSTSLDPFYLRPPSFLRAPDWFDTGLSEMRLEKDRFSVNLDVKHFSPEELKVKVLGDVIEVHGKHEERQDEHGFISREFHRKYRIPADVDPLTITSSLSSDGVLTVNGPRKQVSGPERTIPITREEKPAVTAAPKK

Substance: αB-D3 (αB-crystallin with serine residues 19, 45 and 59 mutated to aspartic acids) (from UniProt P02511 1-175)
- fold increase of affinity in the high affinity mode relative to D70N (T4L-L99A-A130S [1]): 4 fold
- reduction in the magnitude of the BSI signal relative to L99A/A130S (T4L-D70N [2]): 40%
- Kd (T4L-L99A [3]): 2.44 µM
- Kd (T4L-L99A [4]): 0.015 µM
- Kd (T4L-D70N [5]): 29.1 µM
- Kd (T4L-L99A-A130S [6]): 33 µM
- kon (T4L-D70N [7]): 2340 M⁻¹ s⁻¹
- kon (T4L-L99A-A130S [8]): 2970 M⁻¹ s⁻¹
- Kd (T4L-L99A [9]): 1 µM
- Kd (T4L-D70N [10]): 0.595 µM
- Kd (T4L-L99A-A130S [11]): 0.132 µM
- kon (T4L-D70N [12]): 25500 M⁻¹ s⁻¹
- kon (T4L-L99A-A130S [13]): 58500 M⁻¹ s⁻¹
- koff (T4L-D70N [14]): 0.0152 s⁻¹
- koff (T4L-L99A-A130S [15]): 5.03e-06 s⁻¹
- Kd (T4L-L99A [16]): 0.02 µM
- Kd (T4L-L99A [17]): 3.11 µM
- Kd (T4L-L99A [18]): 0.001 µM
- koff (T4L-D70N [19]): 0.0682 s⁻¹
- koff (T4L-L99A-A130S [20]): 0.115 s⁻¹
